Assay results as given in PMC11727998, “Purification and Electron Transfer from Soluble c-Type Cytochrome TorC to TorA for Trimethylamine N-Oxide Reduction” (International Journal of Molecular Sciences, 2024).
Values belong to the molecule of their own block, whether it stands above or below them.

B5: soluble TorC (heme-containing, holo-TorC) (natural protein, E. coli, UniProt P33226 21-390, looked up)
chain: VAIGIVIGIALIVLPHVGIKVTSTTEFCVSCHSMQPVYEEYKQSVHFQNASGVRAECHDCHIPPDIPGMVKRKLEASNDIYQTFIAHSIDTPEKFEAKRAELAEREWARMKENNSATCRSCHNYDAMDHAKQHPEAARQMKVAAKDNQSCIDCHKGIAHQLPDMSSGFRKQFDELRASANDSGDTLYSIDIKPIYAAKGDKEASGSLLPASEVKVLKRDGDWLQIEITGWTESAGRQRVLTQFPGKRIFVASIRGDVQQQVKTLEKTTVADTNTEWSKLQATAWMKKGDMVNDIKPIWAYADSLYNGTCNQCHGAPEIAHFDANGWIGTLNGMIGFTSLDKREERTLLKYLQMNASDTAGKAHGDKKEEK
modifications: heme c at the five CXXCH motifs (iron saturation about 75% of five hemes)
notes: TorC, pentahemic c-type cytochrome of E. coli, lacking the N-terminal 20 amino acid membrane anchor (first 60 nucleotides of the gene deleted); also called soluble periplasmic TorC; source: E. coli HM125 with pTorC-SS and pEC86 (ccmABCDEFGH), hemin added, purified (Ni-NTA, gel filtration)

Tests used:
[1] = molecular target: TorA (Escherichia coli) (UniProt P33225); conditions: cited from earlier work
[2] = molecular target: T1, soluble TorC (Escherichia coli, UniProt P33226); experiment: UV-visible spectroscopy, reduction of TorC; type: biochemical; conditions: electron donor, anaerobic
T1 construct: expressed in E. coli HM125 with ccmABCDEFGH; 43 kDa monomer

[3] = substrate: C[N+](C)(C)[O-]; experiment: GC-MS of derivatized TMA; type: biochemical, Escherichia coli; conditions: 5 µM menadiol as electron donor via soluble TorC, 100 mM Sörensen buffer pH 6.5, 37 °C, anaerobic
Source text: GC-MS of derivatized TMA on TorA with soluble TorC (physiological electron transfer assay)

[4] = substrate: C[N+](C)(C)[O-]; experiment: purified protein; type: biochemical, Escherichia coli; conditions: 400 µM benzyl viologen (dithionite-reduced), 100 mM Sörensen buffer pH 6.5, 37 °C, anaerobic, 3 nM TorA
[5] = molecular target: T2, apo-TorC (soluble TorC without hemes) (E. coli, UniProt P33226 21-390); experiment: SPR; Biacore T200, CM5 chip, target immobilised via amine coupling, 25 °C, 30 µL/min, 20 mM phosphate, 150 mM NaCl, 0.005% Tween 20, pH 7.4; global fit, 1:1 binding; mean of three measurements; conditions: both partners purified
T2 construct: TorC of E. coli lacking the N-terminal 20 amino acid membrane anchor, made without heme insertion; also called soluble apo-TorC; source: E. coli, 'soluble torC' gene expressed without the ccm gene cluster (pEC86) and without hemin, purified
T2 sequence (looked up): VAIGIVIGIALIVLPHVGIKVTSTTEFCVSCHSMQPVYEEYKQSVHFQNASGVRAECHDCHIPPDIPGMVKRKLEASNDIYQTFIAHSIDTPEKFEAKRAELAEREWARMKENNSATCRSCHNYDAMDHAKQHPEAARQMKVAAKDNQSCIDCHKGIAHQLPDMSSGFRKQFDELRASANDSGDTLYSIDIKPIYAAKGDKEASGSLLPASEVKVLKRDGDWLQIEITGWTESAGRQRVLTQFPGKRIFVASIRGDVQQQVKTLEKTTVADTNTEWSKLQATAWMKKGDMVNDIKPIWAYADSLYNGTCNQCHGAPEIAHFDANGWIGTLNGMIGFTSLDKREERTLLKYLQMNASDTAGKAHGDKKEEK

[6] = molecular target: B5; experiment: as above; conditions: both partners purified
[7] = molecular target: T3, TorA (TMAO reductase) (E. coli, UniProt P33225 40-848); experiment: SEC; TorA co-purified with TorD (plasmid pTorAD); TorAD2 complex of 136.5 kDa on analytical gel filtration; conditions: partners not purified
T3 construct: TorA, TMAO reductase of E. coli, with bis-MGD cofactor; Named only 'TorA' in the crosslinking, the activity assay and the crystal structure; the preparation may have held TorD; source: purified following published procedures [31]
T3 sequence: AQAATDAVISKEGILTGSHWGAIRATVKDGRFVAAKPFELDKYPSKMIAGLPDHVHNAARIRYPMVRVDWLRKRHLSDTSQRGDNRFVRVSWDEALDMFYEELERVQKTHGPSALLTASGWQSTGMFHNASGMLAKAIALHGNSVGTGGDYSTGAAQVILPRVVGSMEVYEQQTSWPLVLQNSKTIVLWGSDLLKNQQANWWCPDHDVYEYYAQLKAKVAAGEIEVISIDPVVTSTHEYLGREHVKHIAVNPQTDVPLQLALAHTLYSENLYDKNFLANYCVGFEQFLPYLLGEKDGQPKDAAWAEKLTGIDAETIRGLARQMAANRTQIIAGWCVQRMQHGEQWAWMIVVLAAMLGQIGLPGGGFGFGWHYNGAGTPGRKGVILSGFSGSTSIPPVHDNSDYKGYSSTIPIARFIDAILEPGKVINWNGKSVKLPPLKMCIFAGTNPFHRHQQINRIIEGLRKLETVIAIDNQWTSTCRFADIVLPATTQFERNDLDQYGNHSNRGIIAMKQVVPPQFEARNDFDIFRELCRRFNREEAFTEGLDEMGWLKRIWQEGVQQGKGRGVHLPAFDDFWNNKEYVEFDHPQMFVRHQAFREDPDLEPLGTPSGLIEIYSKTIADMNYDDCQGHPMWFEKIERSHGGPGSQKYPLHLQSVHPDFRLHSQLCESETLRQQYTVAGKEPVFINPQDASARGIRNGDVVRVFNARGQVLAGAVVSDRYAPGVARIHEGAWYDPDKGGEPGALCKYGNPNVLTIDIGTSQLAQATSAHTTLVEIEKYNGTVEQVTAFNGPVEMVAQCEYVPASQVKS

[8] = molecular target: T3, TorA (TMAO reductase); experiment: cell-based or functional assay
[9] = molecular target: TorAD2 (TorA purified in a 1:2 stoichiometry with TorD) (E. coli) (UniProt P33225); experiment: MST; Monolith NT.115, TorAD2 labelled with NT-647-NHS at constant concentration (5 nM), soluble TorC titrated, 25 °C, premium capillaries
[10] = molecular target: TorAD2 (TorA purified in a 1:2 stoichiometry with TorD) (E. coli) (UniProt P33225); experiment: SPR; Biacore T200, CM5 chip, target immobilised via amine coupling, 25 °C, 30 µL/min, 20 mM phosphate, 150 mM NaCl, 0.005% Tween 20, pH 7.4; global fit, 1:1 binding; mean of three measurements
[11] = molecular target: T4, apo-TorA (E. coli, UniProt P33225 40-848); experiment: as above; conditions: both partners purified
T4 construct: TorA, TMAO reductase of E. coli, apo form; Apo form (without cofactor); source: purified following published procedures [31]
T4 sequence: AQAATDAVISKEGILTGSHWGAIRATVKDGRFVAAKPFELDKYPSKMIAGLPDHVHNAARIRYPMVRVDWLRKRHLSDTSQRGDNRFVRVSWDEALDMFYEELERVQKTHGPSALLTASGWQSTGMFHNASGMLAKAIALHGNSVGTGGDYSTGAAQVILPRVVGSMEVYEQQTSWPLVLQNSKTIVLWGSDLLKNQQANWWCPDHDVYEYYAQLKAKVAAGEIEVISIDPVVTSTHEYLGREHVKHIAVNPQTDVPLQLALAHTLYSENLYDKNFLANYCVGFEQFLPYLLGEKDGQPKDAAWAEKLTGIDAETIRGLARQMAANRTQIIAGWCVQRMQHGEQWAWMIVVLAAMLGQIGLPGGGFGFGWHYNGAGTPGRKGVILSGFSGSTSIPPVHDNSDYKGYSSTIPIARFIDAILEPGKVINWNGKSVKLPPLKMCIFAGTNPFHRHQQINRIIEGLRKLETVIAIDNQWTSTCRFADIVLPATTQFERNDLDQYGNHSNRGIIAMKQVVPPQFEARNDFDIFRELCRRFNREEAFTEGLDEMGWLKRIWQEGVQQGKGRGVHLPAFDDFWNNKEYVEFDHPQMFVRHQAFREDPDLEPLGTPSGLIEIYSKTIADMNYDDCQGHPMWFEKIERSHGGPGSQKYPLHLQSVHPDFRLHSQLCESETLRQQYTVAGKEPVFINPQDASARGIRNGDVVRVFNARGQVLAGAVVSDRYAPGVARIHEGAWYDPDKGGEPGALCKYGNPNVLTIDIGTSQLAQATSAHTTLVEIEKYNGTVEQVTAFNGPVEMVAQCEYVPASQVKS

Molecule: TorC TorCN (from UniProt P33226)
Kd [1]: 45 nM

Molecule: Cc1cc(O)c2ccccc2c1O [menadiol]
UV-visible spectroscopy, reduction of TorC [2]: menadiol can reduce soluble TorC, which can be re-oxidized by TorA

B1: TorA with soluble TorC (physiological electron transfer assay) (Escherichia coli K-12) (protein)
chain: AQAATDAVISKEGILTGSHWGAIRATVKDGRFVAAKPFELDKYPSKMIAGLPDHVHNAARIRYPMVRVDWLRKRHLSDTSQRGDNRFVRVSWDEALDMFYEELERVQKTHGPSALLTASGWQSTGMFHNASGMLAKAIALHGNSVGTGGDYSTGAAQVILPRVVGSMEVYEQQTSWPLVLQNSKTIVLWGSDLLKNQQANWWCPDHDVYEYYAQLKAKVAAGEIEVISIDPVVTSTHEYLGREHVKHIAVNPQTDVPLQLALAHTLYSENLYDKNFLANYCVGFEQFLPYLLGEKDGQPKDAAWAEKLTGIDAETIRGLARQMAANRTQIIAGWCVQRMQHGEQWAWMIVVLAAMLGQIGLPGGGFGFGWHYNGAGTPGRKGVILSGFSGSTSIPPVHDNSDYKGYSSTIPIARFIDAILEPGKVINWNGKSVKLPPLKMCIFAGTNPFHRHQQINRIIEGLRKLETVIAIDNQWTSTCRFADIVLPATTQFERNDLDQYGNHSNRGIIAMKQVVPPQFEARNDFDIFRELCRRFNREEAFTEGLDEMGWLKRIWQEGVQQGKGRGVHLPAFDDFWNNKEYVEFDHPQMFVRHQAFREDPDLEPLGTPSGLIEIYSKTIADMNYDDCQGHPMWFEKIERSHGGPGSQKYPLHLQSVHPDFRLHSQLCESETLRQQYTVAGKEPVFINPQDASARGIRNGDVVRVFNARGQVLAGAVVSDRYAPGVARIHEGAWYDPDKGGEPGALCKYGNPNVLTIDIGTSQLAQATSAHTTLVEIEKYNGTVEQVTAFNGPVEMVAQCEYVPASQVKS
notes: recombinant TorA plus soluble TorC (first 20 residues, membrane anchor, deleted); with Cytochrome c-type protein TorC
Km [3]: 9.8 ± 2.53 µM
kcat [3]: 0.145 ± 0.05 s⁻¹

B2: TorA (TMAO reductase) (Escherichia coli K-12) (protein)
chain: AQAATDAVISKEGILTGSHWGAIRATVKDGRFVAAKPFELDKYPSKMIAGLPDHVHNAARIRYPMVRVDWLRKRHLSDTSQRGDNRFVRVSWDEALDMFYEELERVQKTHGPSALLTASGWQSTGMFHNASGMLAKAIALHGNSVGTGGDYSTGAAQVILPRVVGSMEVYEQQTSWPLVLQNSKTIVLWGSDLLKNQQANWWCPDHDVYEYYAQLKAKVAAGEIEVISIDPVVTSTHEYLGREHVKHIAVNPQTDVPLQLALAHTLYSENLYDKNFLANYCVGFEQFLPYLLGEKDGQPKDAAWAEKLTGIDAETIRGLARQMAANRTQIIAGWCVQRMQHGEQWAWMIVVLAAMLGQIGLPGGGFGFGWHYNGAGTPGRKGVILSGFSGSTSIPPVHDNSDYKGYSSTIPIARFIDAILEPGKVINWNGKSVKLPPLKMCIFAGTNPFHRHQQINRIIEGLRKLETVIAIDNQWTSTCRFADIVLPATTQFERNDLDQYGNHSNRGIIAMKQVVPPQFEARNDFDIFRELCRRFNREEAFTEGLDEMGWLKRIWQEGVQQGKGRGVHLPAFDDFWNNKEYVEFDHPQMFVRHQAFREDPDLEPLGTPSGLIEIYSKTIADMNYDDCQGHPMWFEKIERSHGGPGSQKYPLHLQSVHPDFRLHSQLCESETLRQQYTVAGKEPVFINPQDASARGIRNGDVVRVFNARGQVLAGAVVSDRYAPGVARIHEGAWYDPDKGGEPGALCKYGNPNVLTIDIGTSQLAQATSAHTTLVEIEKYNGTVEQVTAFNGPVEMVAQCEYVPASQVKS
notes: recombinant from plasmid pTorAD (torAD in pJF119EH), expressed in E. coli; bis-MGD enzyme; monomer; also purified as TorAD2 complex; first 48 and last 5-10 residues not seen in crystal
Km [4]: 22.06 ± 0.75 µM
kcat [4]: 228 ± 46.3 s⁻¹

Kd [5]: 943 nM
Kd [6]: 1030 nM
B3: TorSN (periplasmic detection domain of TorS) (domain or fragment, E. coli, UniProt P39453 30-332, looked up)
chain: NLRFISQVEKDNTQALIPTMNMARQLSEASAWELFAAQNLTSADNEKMWQAQGRMLTAQSLKINALLQALREQGFDTTAIEQQEQEISRSLRQQGELVGQRLQLRQQQQQLSQQIVAAADEIARLAQGQANNATTSAGATQAGIYDLIEQDQRQAAESALDRLIDIDLEYVNQMNELRLSALRVQQMVMNLGLEQIQKNAPTLEKQLNNAVKILQRRQIRIEDPGVRAQVATTLTTVSQYSDLLALYQQDSEISNHLQTLAQNNIAQFAQFSSEVSQLVDTIELRNQHGLAHLEKASARGQYS
notes: TorS, sensor histidine kinase of E. coli, periplasmic detection domain; also called periplasmic TorS; source: from plasmid pET-Sp (pET21), purified following published procedures [7]

stoichiometry N [7]: 2 TorD per TorA
B4: TorD (natural protein, E. coli, UniProt P36662 1-199, looked up)
chain: MTTLTAQQIACVYAWLAQLFSRELDDEQLTQIASAQMAEWFSLLKSEPPLTAAVNELENRIATLTVRDDARLELAADFCGLFLMTDKQAALPYASAYKQDEQEIKRLLVEAGMETSGNFNEPADHLAIYLELLSHLHFSLGEGTVPARRIDSLRQKTLTALWQWLPEFVARCRQYDSFGFYAALSQLLLVLVECDHQNR
notes: source: co-expressed from plasmid pTorAD and co-purified with TorA

Molecule: B5
kcat of TMAO reduction by TorA with menadiol and soluble TorC as electron donors (TMA quantified by GC-MS) [8]: 0.145 s⁻¹
Kd [9]: 1070 nM
Kd [10]: 309 nM
Kd [11]: 266 nM
